Assay results from publication doi:10.1101/2023.11.08.566258.

Target: Prominin-1 (Prom1) W795R, C-terminally Strep-tagged (human)
Assay: co-IP; EVs from cells co-transfected with Strep-tagged and mScarlet-tagged Prom1, solubilized with 1% DDM; Strep resin; co-purified Prom1-mScarlet measured by fluorescence imaging of the resin beads (CY3 filter set); control with Prom1-mScarlet alone

co-purified mScarlet fluorescence, percent of WT Prom1: 60%
Substance: Prominin-1 (Prom1) W795R, C-terminally Strep-tagged (natural protein)
